The results in this text go back to IntAct's records for PubMed 16432186.

The labels stand for the following.
B1: Beta-arrestin-1 (Homo sapiens), P49407-1 (parent)
chain: MGDKGTRVFKKASPNGKLTVYLGKRDFVDHIDLVDPVDGVVLVDPEYLKERRVYVTLTCAFRYGREDLDVLGLTFRKDLFVANVQSFPPAPEDKKPLTRLQERLIKKLGEHAYPFTFEIPPNLPCSVTLQPGPEDTGKACGVDYEVKAFCAENLEEKIHKRNSVRLVIRKVQYAPERPGPQPTAETTRQFLMSDKPLHLEASLDKEIYYHGEPISVNVHVTNNTNKTVKKIKISVRQYADICLFNTAQYKCPVAMEEADDTVAPSSTFCKVYTLTPFLANNREKRGLALDGKLKHEDTNLASSTLLREGANREILGIIVSYKVKVKLVVSRGGLLGDLASSDVAVELPFTLMHPKPKEEPPHREVPENETPVDTNLIELDTNDDDIVFEDFARQRLKGMKDDKEEEEDGTGSPQLNNR

Variants of B1 are the subject of this assay. The conditions noted are these: with src_human SRC.
Turning to S412D, the “effect of a mutation on the interaction” value is “disrupting interaction strength”.
